Test results from the DeepSol protein solubility set.

Test: soluble on expression in E. coli; label from the status in PepcDB or PDB records

| Sequence | soluble on expression in E. coli |
| --- | --- |
| MEYLDEIKTLGLKPNTITYSMLMLASERKDDFEVSFKLLSQAKGDGVSPNLIMCRCITSLCKRRFEKACAGGEPVVSFKSGRPQIENKWTSMALMVYRETISGGTVPTTEVVSQVLGCLQLPHDAALRDRLISTLGINISSQKQHNIFPLVDGFGEYDPRAFSLLEEATSLGVLPSVSFNKIPLFFDTTELPKNVAEVYLLTIFKGLKHRLAAGAKIPHINLIISIQEKEIRTPEGEKTIDLTGRVGQEIGALLRRGFKIIASTIRKPNQSSATQHSTREPVT | not soluble |
| MFARAPFVRLLSTTSRNLAEAEKKVSKEALMALRKKTGYSYVNCRKALIQFGENDMDSAVKWLKEAAAKEGWAKAAKLGTRVTSNGLVSVVTDNSTAAVVELSCETDFVARSGAFKDLLSNISNSVLAKAKPQSISSGSKLQEFTYDLGDLTDSDGKNMREVLSLSIGKLGENMTVRRVKAFKAPEGTTLFGASHPKDGTDDIPMGRFISLIALNQSSPGSISSQQLAGQICQHIIGMSPESLGEAAESVKTQEGLRSQEGHDPNADPVVVTNIDESETALLRQAFMLNPSQSVHEYLKSHNANILDFVRVELGSE | not soluble |
| MFCTSEAAVDMDSGRGDIRRLKDGEILKYTSGIFSSKWKKMYAVLFSDSRLVWFENRGDRKPKGSVLLKDVIPYICVGLMTDRMPVKRPNVPEGNSVHHLVGIGMNPKADPCHWILFSSDSDIESWFTEITKTLPKPANPPPNAPQQGPGAQPPQQQNNGGYVPPTVYPSAPPPVQPGYNPRPASGQSYPSGPQVPPAYGQYPQPGYPQPAGVPTSSHTTVIVRDGGYGGGGYGGYGGGGGGFGSTGLGFGSGILAGSLLGYGLGSMWGGHHSYGGWGGGYGGGGYGMAGGYYSDNDTTVTNNYYNYGDNDNNGGNNHSSSSNAITDAPGNAGDQSQQQSDNNYGNANQDSYDQGNDYGNDYGNAGYDSGDFGGGDYGGGGYDSGDFGGGDFGGGDFGGGDFGGGDY | not soluble |
| MFDRYDAGEQAVLVHIYFSQDKDMEDLQEFESLVSSAGVEAMQVITGSRKAPHPKYFVGEGKAVEIAEAVKATGAAVVLFDHALSPAQERNLERLCECRVIDRTGLILDIFAQRARTHEGKLQVELAQLRHLATRLVRGWTHLERQKGGIGLRGPGETQLETDRRLLRNRIVQIQSRLEKVEKQREQGRQSRIKADVPTVSLVGYTNAGKSTLFNQITEARVYAADQLFATLDPTLRRIDVADVGETVLADTVGFIRHLPHDLVAAFKATLQETRQATLLLHVVDAADVRVQENIEAVNTVLEEIDAHEIPTLMVMNKIDMLDDFEPRIDRDEENKPIRVWLSAQSGVGIPQLFQALTERLSGEVAQHTLRLPPQEGRLRSRFYQLQAIEKEWMEEDGSVSLQVRMPIVDWRRLCKQEPALIEYVILEHHHHHH | soluble |
| MFDSLAKAGKYLGQAAKLMIGMPDYDNYVEHMRVNHPDQTPMTYEEFFRERQDARYGGKGGARCC | soluble |
| MFDTKIAVILRDDLAVWQKLNVTAFLMSGIVAQTGEIIGEPYRDGAGNVYNPLSIQPIVVMATDQEALRKIHQRSLERDITTSLYIEEMFATGHDAANRQVFSHFSPDTAKVVGMALRADRKIVDKITKGAKLHA | soluble |
| MFENNETLIVWSETDVMDLALSFQEKSGCEELWQKICEVQGRDPGDPDATFDDGDDSDVGEMPSSASRLQLPPIEIGRLGELDALLHMHLTTNSAREKMTLAIENDNVVTKLCEVFRMCEDIEHTEGLRTFYSIVKNLFMLNRNTVIEMLLDDNNIKDVIGMFEFDPAYKHPRKHRDFVYKKAKFREVLNISCDELRDKIHRLYRAQYIQDACLPSLGLFEENLLSTLSSHVFFCRVDIVTLLQKDKKAMSELFGQLISEETDVIRRRDLALFLKEMISLSTSIPSNGPAATKETFFKVLQNMFNSEILDSLEPCFKSPDHETRAVMVDVLRTMVDANAQMIRDFLLKQSKTKDKNEDVLLNMMIRHLLTDIDVHLTSGSEIVLIMKTLLDPENMTTVKSERSDFLQLFYNRCYESLLKPILENVSGGNIKKDDYMIANRQSVILRLLTFCVEHHSFSMRQRCVSNDLMNKVLVLLKSKHSFLVLSALKLLQRVVTVKDDKYIRYIVKEKVLDPVMECFRKNGNRYNIINSSVLHLFEFVRSEDVRPLIKYVVENHMEVVDSVNYVKTFKEIKIRYDQHRDREETMSVRSEDNSLASPRSFRKDRNEDQWFDEDEDLEVGTMLESIEKDSVAVSPKKEEAGQRKTGMEPMFPSLLKRKNAFDDDEAPVFGGGSAAVINNTEKKIVIKVNSDRSPSRTPSPASSPRASSSPGPSRDDEVTSSQNNKESSPTPTVKSLVDYDESDDSDDDPPSPDAVPSSSTGSPEKEGDSADGKKGDSPEYNDVSSTSNEEKFDSRNGAPVTNENGGVEAAAPTVEISRKRTSDGIDPDAKRIRTEETAPAATATVSQA | not soluble |
| MFFVLSPAKNLNEKDPAPVSEFTQPDLLAESDILMQQLRELAPQQIAELMHVSDKIALLNAQRNAEWNTPFTPENAKQAVFMFNGDVYEGMDANTLDIGQIRYLQNHVRLLSGLYGLLRPLDLIQPYRLEMGTAFANLRGKNLYEFWGDIITNLLNDTLAQAGSNTLVNLASQEYFKSVNTKKLRARLITPIFKDEKNGKYKIISFYAKRARGLMVRYAAEHHITDPEMLKNFNYEGYAFNDAASNESEWVFMRSEQIK | not soluble |
| MFIREEEQMKRMIITIGRQSGSSGRKVGELLAERLSLPLYGKAELQKIAEGTDDYEEVQAFYEEEPVNSLLYAIAMSQFEQEVGRIPFQRIRELASKESCIIIGRCAGHIFREDPEAVRVFIHADPKIRVQRIMEREGLSETKAKKFLEDTDSRRASFHKYYTKQEWGLAQDYELCLDSGVLGIEGTVEVLTEYLRFRGFLGNE | not soluble |
| MFKLFTARQHDKIWDFDGGIHPPEMKLQSSTVPMRIAPLPDQLIIPLQQHLGPEGELRVRAGEQVLKGQPLTVGRGRTVPVHAPTSGMITAIAPHTTAHPSGLAELCVHITPDGEDRWREQQPWADYRQRDKMALLDRIHQAGIAGLGGAGFPTASKLQGGLNGIITLIINAAECEPYITADDRLMQEHADEVITGIHILRHLLQPQQVLIGIEDNKPEAIAALQRALRGQDDIHLRVVPTKYPSGGAKQLTKILTGKEVPFGKHSSSIGVLMQNVGTVVAIKRAVIDDEPLIERVVTLTGDALSSPGNFWARIGTPVLYLLKLAGFKPQNPPMVIMGGPLMGFTLPSLDVPIVKISNCILAPAETEMGLSEPEQSCIRCGLCVDACPAGLLPQQLYWFSRGEEHEKARNHNLFDCIECGACAYVCPSNIPLVQYYRQEKAEIRALDQESARAAEAKARFEAKQARLAREKLARELRHKQAAVKLTDADQQTVDAAVSRLTRQSDGSESVINIPAGQMPDNSAVIAAREARKAQARARQAEKQQARSTEETTDVVDPRQAAVAAAIARVKAKKAVQAQHVTTDVAEAGSEAMAEDPRKAAVAAAIARVKAKKAAQAINPD | not soluble |
| MFLNTNEILDYSALKYMPNLKSLTVANAKIKDPSFFANLKQLNHLALRGNEFSDVTPLVKMDHLDSLDLSNNKITNVAPLIEMKNVKSLYLSGNQIEDVTALAKMEQLDYLNLANNKITNVAPLSALKNVTYLTLAGNQIEDIKPLYSLPLTDLVLTRNKVKDLSGIEQMKQLEELWIGKNEIKDVTPLSKMTQLKQLHLPNNELKDITPLSSLVNLQKLDLEANYISDLTPASNLKKLVFLSFVANEIRDVRPVIELSKTAYINVQNQKVFLEETEVNKEVKVPIYEKDGKISTKIRLKGEGGTYSNDAVKWSTPGEKVYEFGVKDPFADTGIFFTGSVIQNVVESKADNTSKEDNTSKEDAKVEVVEFKDVPKGHWSEEAIHYLAKENIFKGYGNGQFGFGDSITRGQVASLVQRYLKLENKVEQKERFTDTKGHMFEQDIATVAQAGIMQGDGTGEFRPDGVLTRYEMSVVLYKVFQLKEDGNNKVNFKDVPTGHWAEGYVKALVDNNISKGDGKERFLGDDFVTREQYAQFLYNAITK | not soluble |
| MFLTRSEYDRGVSTFSPEGRLFQVEYSLEAIKLGSTAIGIATKEGVVLGVEKRATSPLLESDSIEKIVEIDRHIGCAMSGLTADARSMIEHARTAAVTHNLYYDEDINVESLTQSVCDLALRFGEGASGEERLMSRPFGVALLIAGHDADDGYQLFHAEPSGTFYRYNAKAIGSGSEGAQAELLNEWHSSLTLKEAELLVLKILKQVMEEKLDENNAQLSCITKQDGFKIYDNEKTAELIKELKEKEAAESPEEADVEMS | soluble |
